From the supplement of paper PMC9112550, “Optimization of the antimicrobial peptide Bac7 by deep mutational scanning” (BMC Biology, 2022) come the findings set out here.
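Also: peptides expressed intracellularly from a pBAD plasmid library in pooled LB shake-flask culture, induced with 0.3% L-arabinose, DNA abundance read by NGS, three biological replicates, DESeq2 with apeglm shrinkage.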

The series relates to Escherichia coli TOP10. The series is described as follows: shrunken log2 fold change of peptide-encoding DNA abundance (4.5 h post-induction vs induction); higher = less antimicrobial activity (less host growth inhibition). As to conditions: time post-induction: 4.5 h; library: site-saturation at positions 5, 18, 19, 20.
With RRIRCRPPRLPRPRPRPEVWPRP, the “shrunken log2 fold change” value was found to be 0.725. Next, RRIRARPPRLPRPRPRPQLHPRP: 0.054; RRIRIRPPRLPRPRPRPEPKPRP: 0.475; RRIRLRPPRLPRPRPRPDVPPRP: -0.284. Next, RRIRMRPPRLPRPRPRPVCYPRP: -0.21; RRIRNRPPRLPRPRPRPCYIPRP: -0.33.

Consider RRIRTRPPRLPRPRPRPVGIPRP, for which the “shrunken log2 fold change” value is -0.0568. To RRIRFRPPRLPRPRPRPIGHPRP belongs -0.115; to RRIRNRPPRLPRPRPRPTITPRP, -0.455. To RRIRCRPPRLPRPRPRPTRIPRP belongs 0.258. Next, RRIRDRPPRLPRPRPRPQHDPRP: -0.249; RRIRIRPPRLPRPRPRPQYIPRP: -0.181. As for RRIRSRPPRLPRPRPRPIIKPRP, the “shrunken log2 fold change” value worked out at 0.18.

For the sequence RRIRTRPPRLPRPRPRPQYNPRP, the “shrunken log2 fold change” value was -0.856. Next, RRIRGRPPRLPRPRPRPWVLPRP: 0.222; RRIRPRPPRLPRPRPRPENTPRP: 0.11. Next, RRIRSRPPRLPRPRPRPVEHPRP: -0.16; RRIRNRPPRLPRPRPRPCFLPRP: -0.389; RRIRDRPPRLPRPRPRPQWDPRP: 0.101. Next, RRIRVRPPRLPRPRPRPAMKPRP: -0.187. As to RRIRERPPRLPRPRPRPGFCPRP, the “shrunken log2 fold change” value is -0.122. Next, RRIRSRPPRLPRPRPRPISDPRP: 0.103; RRIRMRPPRLPRPRPRPKVFPRP: 0.0743. To RRIRMRPPRLPRPRPRPEVVPRP belongs 2.97. Next, RRIRDRPPRLPRPRPRPVPFPRP: 2.99; RRIRIRPPRLPRPRPRPFCHPRP: -0.302. In the case of RRIRIRPPRLPRPRPRPEGKPRP, the “shrunken log2 fold change” value is -0.0199. Next, RRIRFRPPRLPRPRPRPFPYPRP: -0.445; RRIRIRPPRLPRPRPRPTWAPRP: 0.0207; RRIRDRPPRLPRPRPRPSGGPRP: 0.356. Next, RRIRGRPPRLPRPRPRPRWAPRP: 0.702; RRIRFRPPRLPRPRPRPNVIPRP: -0.173; RRIRKRPPRLPRPRPRPMVFPRP: -0.0194. Next, RRIRVRPPRLPRPRPRPAYRPRP: -0.0828; RRIRCRPPRLPRPRPRPDHMPRP: -0.0636; RRIRNRPPRLPRPRPRPYHAPRP: -0.0081.

In the case of RRIRERPPRLPRPRPRPWEYPRP, the “shrunken log2 fold change” value was determined as 0.0155. To RRIRGRPPRLPRPRPRPICAPRP belongs 1.2. Next, RRIRNRPPRLPRPRPRPTWNPRP: -0.0528. Next, RRIRDRPPRLPRPRPRPDGNPRP: -0.00172. Regarding RRIRTRPPRLPRPRPRPDIPPRP, the “shrunken log2 fold change” value is -0.0961. To RRIRGRPPRLPRPRPRPWHWPRP belongs 0.424; to RRIRSRPPRLPRPRPRPYIDPRP, -0.071; to RRIRGRPPRLPRPRPRPPPPPRP, 1.54. Next, RRIRVRPPRLPRPRPRPVRVPRP: 0.905; RRIRIRPPRLPRPRPRPAMVPRP: -0.547. Turning to RRIRQRPPRLPRPRPRPAQMPRP, the “shrunken log2 fold change” value is -0.15. As for RRIRVRPPRLPRPRPRPIEWPRP, the “shrunken log2 fold change” value was -0.000773. To RRIRSRPPRLPRPRPRPSFIPRP belongs -0.661; to RRIRARPPRLPRPRPRPYMTPRP, -0.256. Next, RRIRQRPPRLPRPRPRPFHEPRP: -0.0703; RRIRRRPPRLPRPRPRPMKCPRP: -0.0984; RRIRDRPPRLPRPRPRPNAVPRP: -0.101. To RRIRMRPPRLPRPRPRPNLNPRP belongs -0.0299. As for RRIRPRPPRLPRPRPRPKQEPRP, the “shrunken log2 fold change” value was 0.138.

As for RRIRPRPPRLPRPRPRPKWTPRP, the “shrunken log2 fold change” value is -0.0336. To RRIRHRPPRLPRPRPRPVRPPRP belongs 0.365; to RRIRGRPPRLPRPRPRPHIRPRP, 0.0682. To RRIRGRPPRLPRPRPRPCAYPRP belongs 0.0946; to RRIRFRPPRLPRPRPRPWDYPRP, -0.387. To RRIRPRPPRLPRPRPRPFMHPRP belongs 0.0361. Turning to RRIRKRPPRLPRPRPRPEDGPRP, the “shrunken log2 fold change” value was 1.9. Next, RRIRGRPPRLPRPRPRPCLEPRP: 0.546; RRIRYRPPRLPRPRPRPWEEPRP: -0.0122; RRIRRRPPRLPRPRPRPRQDPRP: 0.274. Turning to RRIRMRPPRLPRPRPRPYSCPRP, the “shrunken log2 fold change” value was -0.706.

RRIRFRPPRLPRPRPRPNPMPRP: the “shrunken log2 fold change” value was -0.136. For the sequence RRIRNRPPRLPRPRPRPMISPRP, the “shrunken log2 fold change” value was -0.0707. For RRIRPRPPRLPRPRPRPEDQPRP, the “shrunken log2 fold change” value came to 0.106. To RRIRTRPPRLPRPRPRPDPRPRP belongs 0.0663; to RRIRMRPPRLPRPRPRPSTRPRP, 0.406. To RRIRRRPPRLPRPRPRPMYGPRP belongs -0.0152. To RRIRERPPRLPRPRPRPLSPPRP belongs -0.17.

Regarding RRIRWRPPRLPRPRPRPSTHPRP, the “shrunken log2 fold change” value amounted to 0.667. Next, RRIRIRPPRLPRPRPRPVAMPRP: -0.0657; RRIRSRPPRLPRPRPRPEIYPRP: -0.295.

Turning to RRIRDRPPRLPRPRPRPFQAPRP, the “shrunken log2 fold change” value was 0.0185. Next, RRIRCRPPRLPRPRPRPRTHPRP: -0.168. In the case of RRIRFRPPRLPRPRPRPRSRPRP, the “shrunken log2 fold change” value is -0.016. To RRIRCRPPRLPRPRPRPTSQPRP belongs 0.00813.

Turning to RRIRTRPPRLPRPRPRPCYCPRP, the “shrunken log2 fold change” value was -0.76.

Turning to RRIRERPPRLPRPRPRPEHEPRP, the “shrunken log2 fold change” value was -0.0139. To RRIRPRPPRLPRPRPRPAPHPRP belongs 0.402; to RRIRTRPPRLPRPRPRPKAAPRP, 0.565. Next, RRIRVRPPRLPRPRPRPRGSPRP: 0.527.

In the case of RRIRNRPPRLPRPRPRPMELPRP, the “shrunken log2 fold change” value was -0.182.

In the case of RRIRGRPPRLPRPRPRPSSQPRP, the “shrunken log2 fold change” value was determined as 0.099. As for RRIRKRPPRLPRPRPRPYHLPRP, the “shrunken log2 fold change” value is -0.0564.

Consider RRIRERPPRLPRPRPRPCVHPRP, for which the “shrunken log2 fold change” value was -0.0795. To RRIRGRPPRLPRPRPRPKFKPRP belongs 0.383. For RRIRNRPPRLPRPRPRPGPFPRP, the “shrunken log2 fold change” value was 0.00962.

RRIRMRPPRLPRPRPRPYGTPRP: the “shrunken log2 fold change” value was -0.411. Consider RRIRFRPPRLPRPRPRPCHPPRP, for which the “shrunken log2 fold change” value amounted to 1.35. Next, RRIRCRPPRLPRPRPRPPDFPRP: -0.00542. To RRIRARPPRLPRPRPRPDCYPRP belongs 0.283; to RRIRQRPPRLPRPRPRPWKVPRP, -0.00992; to RRIRIRPPRLPRPRPRPHRYPRP, -0.171.

In the case of RRIRKRPPRLPRPRPRPKRWPRP, the “shrunken log2 fold change” value worked out at 0.906. Regarding RRIRNRPPRLPRPRPRPWLVPRP, the “shrunken log2 fold change” value is -0.151.

With RRIRGRPPRLPRPRPRPNVSPRP, the “shrunken log2 fold change” value was -0.0528.

On to RRIRMRPPRLPRPRPRPCEQPRP, for which the “shrunken log2 fold change” value came out at 0.195. To RRIRQRPPRLPRPRPRPSVLPRP belongs -0.0352.

Take RRIRFRPPRLPRPRPRPDVWPRP: the “shrunken log2 fold change” value was found to be 0.128. As for RRIRERPPRLPRPRPRPLDYPRP, the “shrunken log2 fold change” value was -0.163. Regarding RRIRFRPPRLPRPRPRPSYGPRP, the “shrunken log2 fold change” value was -0.37. As to RRIRKRPPRLPRPRPRPKIGPRP, the “shrunken log2 fold change” value stood at 0.295. To RRIRLRPPRLPRPRPRPNATPRP belongs 0.0161.

On to RRIRFRPPRLPRPRPRPCGAPRP, for which the “shrunken log2 fold change” value worked out at 0.0828. Next, RRIRDRPPRLPRPRPRPVYYPRP: -0.707; RRIRRRPPRLPRPRPRPFGMPRP: -0.0784. Take RRIRHRPPRLPRPRPRPVYDPRP: the “shrunken log2 fold change” value is -0.202. For RRIRGRPPRLPRPRPRPLLSPRP, the “shrunken log2 fold change” value turned out to be 1.04. To RRIRIRPPRLPRPRPRPGQPPRP belongs 0.0462; to RRIRSRPPRLPRPRPRPLNWPRP, -0.0815. On to RRIRKRPPRLPRPRPRPRAAPRP, for which the “shrunken log2 fold change” value worked out at 1.13. Next, RRIRGRPPRLPRPRPRPGKSPRP: 0.176; RRIRNRPPRLPRPRPRPNVGPRP: -0.183; RRIRERPPRLPRPRPRPRYCPRP: -0.516. For RRIRYRPPRLPRPRPRPSLSPRP, the “shrunken log2 fold change” value was -0.623. RRIRDRPPRLPRPRPRPMSSPRP: the “shrunken log2 fold change” value is 0.0508. Next, RRIRRRPPRLPRPRPRPPNSPRP: -0.0871; RRIRERPPRLPRPRPRPQYKPRP: -0.675; RRIRERPPRLPRPRPRPAYLPRP: -0.296. Consider RRIRVRPPRLPRPRPRPDRYPRP, for which the “shrunken log2 fold change” value is -0.00296. To RRIRMRPPRLPRPRPRPCWLPRP belongs -0.0281.
